# Test results as given in PMC3097224, “Mth10b, a Unique Member of the Sac10b Family, Does Not Bind Nucleic Acid” (PLoS ONE, 2011).
# Target: the molecule itself
# Experiment: AUC; sedimentation velocity, 60000 rpm, 20°C, buffer F (50 mM Na2HPO4-NaH2PO4/pH 7.5), protein at 0.6 and 1.0 mg/mL, absorption at 238 nm
protein,measurement,value
"Mth10b from Methanobacterium thermoautotrophicum ΔH (natural protein, UniProt O27527 2-91, looked up, Mth10b, Sac10b family protein of Methanobacterium thermoautotrophicum ΔH, gene MTH1483; whole gene cloned with primers from the start codon to the stop codon; No tag (pET11a, NdeI/BamHI); also called MTH1483; source: Escherichia coli BL21 (DE3), pET11a, purified (Q Sepharose Fast Flow, Phenyl Sepharose High Performance, Resource-S)) SEENVVYIGNKPVMNYVLAVVTQMNGGTSEVILKARGIAISRAVDVAEIVRNRFIPDIQIENIDICTEEIIGNEGTATNVSAIEIQLRKD",stoichiometry N,2
